Measurements taken from IntAct's records for PubMed 31515488.

B1: Caspase-9 (Homo sapiens), P55211 (parent)
chain: MDEADRRLLRRCRLRLVEELQVDQLWDALLSRELFRPHMIEDIQRAGSGSRRDQARQLIIDLETRGSQALPLFISCLEDTGQDMLASFLRTNRQAAKLSKPTLENLTPVVLRPEIRKPEVLRPETPRPVDIGSGGFGDVGALESLRGNADLAYILSMEPCGHCLIINNVNFCRESGLRTRTGSNIDCEKLRRRFSSLHFMVEVKGDLTAKKMVLALLELAQQDHGALDCCVVVILSHGCQASHLQFPGAVYGTDGCPVSVEKIVNIFNGTSCPSLGGKPKLFFIQACGGEQKDHGFEVASTSPEDESPGSNPEPDATPFQEGLRTFDQLDAISSLPTPSDIFVSYSTFPGFVSWRDPKSGSWYVETLDDIFEQWAHSEDLQSLLLRVANAVSVKGIYKQMPGCFNFLRKKLFFKTS
B2: Protein LDOC1 (Homo sapiens), O95751 (parent)
chain: MVDELVLLLHALLMRHRALSIENSQLMEQLRLLVCERASLLRQVRPPSCPVPFPETFNGESSRLPEFIVQTASYMLVNENRFCNDAMKVAFLISLLTGEAEEWVVPYIEMDSPILGDYRAFLDEMKQCFGWDDDEDDDDEEEEDDY
partner: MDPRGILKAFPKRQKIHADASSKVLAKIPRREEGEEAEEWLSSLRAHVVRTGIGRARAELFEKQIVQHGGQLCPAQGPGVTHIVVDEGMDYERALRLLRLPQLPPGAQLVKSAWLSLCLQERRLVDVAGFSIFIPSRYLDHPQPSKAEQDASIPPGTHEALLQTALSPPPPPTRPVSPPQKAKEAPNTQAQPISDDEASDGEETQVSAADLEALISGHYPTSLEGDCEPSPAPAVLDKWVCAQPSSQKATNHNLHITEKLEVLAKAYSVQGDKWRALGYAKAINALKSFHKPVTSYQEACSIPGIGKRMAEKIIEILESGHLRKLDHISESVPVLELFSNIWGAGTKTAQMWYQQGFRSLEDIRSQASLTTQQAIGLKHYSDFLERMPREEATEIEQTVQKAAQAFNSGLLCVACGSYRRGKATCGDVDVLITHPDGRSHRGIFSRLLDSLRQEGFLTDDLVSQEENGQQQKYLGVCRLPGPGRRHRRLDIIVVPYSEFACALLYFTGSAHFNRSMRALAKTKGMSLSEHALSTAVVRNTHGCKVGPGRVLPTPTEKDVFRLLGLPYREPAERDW
B3: Coiled-coil domain-containing protein 92 (Homo sapiens), Q53HC0 (parent)
chain: MTSPHFSSYDEGPLDVSMAATNLENQLHSAQKNLLFLQREHASTLKGLHSEIRRLQQHCTDLTYELTVKSSEQTGDGTSKSSELKKRCEELEAQLKVKENENAELLKELEQKNAMITVLENTIKEREKKYLEELKAKSHKLTLLSSELEQRASTIAYLTSQLHAAKKKLMSSSGTSDASPSGSPVLASYKPAPPKDKLPETPRRRMKKSLSAPLHPEFEEVYRFGAESRKLLLREPVDAMPDPTPFLLARESAEVHLIKERPLVIPPIASDRSGEQHSPAREKPHKAHVGVAHRIHHATPPQAQPEVKTLAVDQVNGGKVVRKHSGTDRTV
partner: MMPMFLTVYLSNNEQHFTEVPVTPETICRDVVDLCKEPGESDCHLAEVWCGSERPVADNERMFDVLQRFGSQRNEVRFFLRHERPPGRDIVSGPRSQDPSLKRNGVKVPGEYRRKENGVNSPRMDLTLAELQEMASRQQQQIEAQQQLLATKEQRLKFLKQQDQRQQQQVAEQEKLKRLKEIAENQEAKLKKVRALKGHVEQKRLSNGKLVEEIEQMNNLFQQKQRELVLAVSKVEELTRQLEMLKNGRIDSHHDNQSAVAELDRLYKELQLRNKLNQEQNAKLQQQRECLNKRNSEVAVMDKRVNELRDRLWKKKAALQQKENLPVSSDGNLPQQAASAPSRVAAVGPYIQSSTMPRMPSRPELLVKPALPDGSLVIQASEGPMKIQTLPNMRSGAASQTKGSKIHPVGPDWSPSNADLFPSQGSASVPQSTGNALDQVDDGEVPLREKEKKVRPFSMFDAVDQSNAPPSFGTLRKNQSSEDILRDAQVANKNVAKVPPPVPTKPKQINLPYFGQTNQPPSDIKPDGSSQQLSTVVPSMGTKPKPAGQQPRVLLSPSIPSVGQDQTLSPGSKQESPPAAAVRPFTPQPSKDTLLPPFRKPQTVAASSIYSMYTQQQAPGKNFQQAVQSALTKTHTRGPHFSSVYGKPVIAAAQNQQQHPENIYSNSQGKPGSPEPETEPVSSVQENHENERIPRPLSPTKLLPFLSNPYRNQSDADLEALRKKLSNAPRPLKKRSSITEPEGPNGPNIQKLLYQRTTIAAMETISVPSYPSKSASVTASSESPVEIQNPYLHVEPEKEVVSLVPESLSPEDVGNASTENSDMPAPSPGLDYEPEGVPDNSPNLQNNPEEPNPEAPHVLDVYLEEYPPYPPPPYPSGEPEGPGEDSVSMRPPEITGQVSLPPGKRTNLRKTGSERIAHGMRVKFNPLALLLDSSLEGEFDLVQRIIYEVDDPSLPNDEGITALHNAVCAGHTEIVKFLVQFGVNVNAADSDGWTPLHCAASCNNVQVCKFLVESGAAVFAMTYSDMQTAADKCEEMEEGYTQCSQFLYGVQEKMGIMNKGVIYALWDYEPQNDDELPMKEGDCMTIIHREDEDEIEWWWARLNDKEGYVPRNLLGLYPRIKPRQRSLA
B4: Microtubule-associated tumor suppressor candidate 2 (Homo sapiens), Q5JR59-3 (parent)
chain: MGHCCCKPYNCLQCLDKTNESALVKEKELSIELANIRDEVAFHTAKCEKLQKEKEELERRFEDEVKRLGWQQQAELQELEERLQLQFEAEMARLQEEHGDQLLSIRCQHQEQVEDLTASHDAALLEMENNHTVAITILQDDHDHKVQELMSTHELEKKELEENFEKLRLSLQDQVDTLTFQSQSLRDRARRFEEALRKNTEEQLEIALAPYQHLEEDMKSLKQVLEMKNQQIHEQEKKILELEKLAEKNIILEEKIQVLQQQNEDLKARIDQNTVVTRQLSEENANLQEYVEKETQEKKRLSRTNEELLWKLQTGDPTSPIKLSPTSPVYRGSSSGPSSPARVSTTPR
partner: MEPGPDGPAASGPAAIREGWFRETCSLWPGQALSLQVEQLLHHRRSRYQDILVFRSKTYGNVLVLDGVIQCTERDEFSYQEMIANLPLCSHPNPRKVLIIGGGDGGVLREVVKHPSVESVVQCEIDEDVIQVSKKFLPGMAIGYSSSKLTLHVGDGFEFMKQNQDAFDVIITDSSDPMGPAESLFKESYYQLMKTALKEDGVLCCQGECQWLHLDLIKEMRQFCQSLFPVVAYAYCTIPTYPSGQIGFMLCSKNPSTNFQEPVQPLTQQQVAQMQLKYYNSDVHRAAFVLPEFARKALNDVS
B5: Low-density lipoprotein receptor class A domain-containing protein 1 (Homo sapiens), Q5T700 (parent)
chain: MNKVFPQGENGYTAAESKAHPGGEAGGGHLCCSRRGACLSASLLLLLATVAALIALVTILGLPSCTPGAQACITLTNRTGFLCHDQRSCIPASGVCDGVRTCTHGEDEDESLCRDVPQSLPHFLVAHCGDPASWIYSDQKCDGTNNCGDCSDELSPVTVCPPCGPGWWRCPSTFFKYCDCIPRHLCRDHVQHCSDWSDEYACPGP
partner: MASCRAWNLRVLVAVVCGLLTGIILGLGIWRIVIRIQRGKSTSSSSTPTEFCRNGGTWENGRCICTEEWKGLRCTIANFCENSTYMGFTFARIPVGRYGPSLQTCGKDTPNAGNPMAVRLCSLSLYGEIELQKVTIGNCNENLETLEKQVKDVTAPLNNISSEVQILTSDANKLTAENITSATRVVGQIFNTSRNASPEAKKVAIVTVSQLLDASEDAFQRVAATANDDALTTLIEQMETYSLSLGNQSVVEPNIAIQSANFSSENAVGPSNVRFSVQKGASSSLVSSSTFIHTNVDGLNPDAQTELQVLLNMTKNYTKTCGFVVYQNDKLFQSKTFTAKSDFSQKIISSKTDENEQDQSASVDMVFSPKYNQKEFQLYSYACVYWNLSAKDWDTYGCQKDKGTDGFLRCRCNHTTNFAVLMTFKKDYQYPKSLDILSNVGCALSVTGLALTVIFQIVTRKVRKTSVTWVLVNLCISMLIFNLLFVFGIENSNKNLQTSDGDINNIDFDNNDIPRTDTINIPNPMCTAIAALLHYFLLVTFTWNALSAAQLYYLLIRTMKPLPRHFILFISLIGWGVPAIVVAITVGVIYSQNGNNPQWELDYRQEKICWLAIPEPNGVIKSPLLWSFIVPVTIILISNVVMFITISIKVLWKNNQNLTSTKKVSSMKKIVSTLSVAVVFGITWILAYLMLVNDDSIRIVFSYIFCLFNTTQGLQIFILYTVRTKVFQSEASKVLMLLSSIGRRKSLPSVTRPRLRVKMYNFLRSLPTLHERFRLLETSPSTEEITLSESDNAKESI
B6: BTB/POZ domain-containing protein KCTD6 (Homo sapiens), Q8NC69 (parent)
chain: MDNGDWGYMMTDPVTLNVGGHLYTTSLTTLTRYPDSMLGAMFGGDFPTARDPQGNYFIDRDGPLFRYVLNFLRTSELTLPLDFKEFDLLRKEADFYQIEPLIQCLNDPKPLYPMDTFEEVVELSSTRKLSKYSNPVAVIITQLTITTKVHSLLEGISNYFTKWNKHMMDTRDCQVSFTFGPCDYHQEVSLRVHLMEYITKQGFTIRNTRVHHMSERANENTVEHNWTFCRLARKTDD

Variants of: B1
Details: with birc2_human BIRC2, Q13490
Chain of birc2_human BIRC2, Q13490 (Q13490 whole entry): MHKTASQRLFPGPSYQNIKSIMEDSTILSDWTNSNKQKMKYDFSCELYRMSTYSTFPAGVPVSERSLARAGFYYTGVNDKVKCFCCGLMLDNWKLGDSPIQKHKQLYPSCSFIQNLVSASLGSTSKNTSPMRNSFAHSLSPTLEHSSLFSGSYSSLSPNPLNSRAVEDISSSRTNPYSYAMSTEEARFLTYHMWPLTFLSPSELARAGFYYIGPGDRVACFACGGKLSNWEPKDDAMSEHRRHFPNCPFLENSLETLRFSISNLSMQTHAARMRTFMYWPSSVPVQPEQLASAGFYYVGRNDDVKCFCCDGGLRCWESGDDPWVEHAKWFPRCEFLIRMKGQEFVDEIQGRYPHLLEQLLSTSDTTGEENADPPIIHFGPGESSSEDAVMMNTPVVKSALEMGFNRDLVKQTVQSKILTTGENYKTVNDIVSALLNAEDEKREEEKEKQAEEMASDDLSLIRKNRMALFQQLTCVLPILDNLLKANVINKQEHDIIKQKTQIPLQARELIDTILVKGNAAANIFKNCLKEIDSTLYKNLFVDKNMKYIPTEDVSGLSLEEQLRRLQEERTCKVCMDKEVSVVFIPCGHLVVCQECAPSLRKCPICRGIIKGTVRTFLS

| effect of a mutation on the interaction | Variant |
| --- | --- |
| disrupting interaction strength | T366N |
| with no effect | P336S |
| disrupting interaction strength | R178C |
| with no effect | Q221R |

Variants of: B1
Details: with xiap_human XIAP

| effect of a mutation on the interaction | Variant |
| --- | --- |
| with no effect | P336S |
| with no effect | Q221R |

Variants of: B2
Details: with dpoll_human POLL

| effect of a mutation on the interaction | Variant |
| --- | --- |
| disrupting interaction strength | L12H |

Variants of: B3
Details: with aspp2_human TP53BP2, Q13625

| effect of a mutation on the interaction | Variant |
| --- | --- |
| with no effect | S70C |

Variants of: B4
Details: with spee_human SRM

| effect of a mutation on the interaction | Variant |
| --- | --- |
| with no effect | A89V |

Variants of: B5
Details: with agrg7_human ADGRG7, Q96K78

| effect of a mutation on the interaction | Variant |
| --- | --- |
| with no effect | E108K |

Variants of: B6
Details: with prp31_human PRPF31, Q8WWY3
Chain of prp31_human PRPF31, Q8WWY3 (Q8WWY3 whole entry): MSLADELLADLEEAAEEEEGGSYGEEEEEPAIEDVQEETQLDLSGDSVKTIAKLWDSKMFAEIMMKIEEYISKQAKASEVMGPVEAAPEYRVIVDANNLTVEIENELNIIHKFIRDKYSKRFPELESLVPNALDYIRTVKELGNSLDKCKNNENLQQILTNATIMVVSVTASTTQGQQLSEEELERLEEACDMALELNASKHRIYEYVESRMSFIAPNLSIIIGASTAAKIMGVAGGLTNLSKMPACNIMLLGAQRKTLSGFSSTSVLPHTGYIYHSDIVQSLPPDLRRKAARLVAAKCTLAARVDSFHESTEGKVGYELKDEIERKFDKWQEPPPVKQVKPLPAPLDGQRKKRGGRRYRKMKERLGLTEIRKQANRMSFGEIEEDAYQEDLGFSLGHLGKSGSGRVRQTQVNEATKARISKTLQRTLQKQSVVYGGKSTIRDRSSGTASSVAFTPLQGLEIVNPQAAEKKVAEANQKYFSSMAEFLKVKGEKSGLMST

| effect of a mutation on the interaction | Variant |
| --- | --- |
| with no effect | N207S |

Variants of: B6
Details: with echp_human EHHADH

| effect of a mutation on the interaction | Variant |
| --- | --- |
| with no effect | N207S |
